Laboratory results as given in US20230146533A1, “KERATIN BD-10, PREPARATION METHOD THEREFOR AND PHARMACEUTICAL COMPOSITION AND USE THEREOF” (INSTITUTE OF MATERIA MEDICA, CHINESE ACADEMY OF MEDICAL …, priority 2019, published 2023).

Experiments:
Type in all cases: in vivo, ICR mice
[1] = test system: PTZ-induced epilepsy in mice; assay: Pentylenetetrazole (PTZ) induced epilepsy in mice; conditions: for Grade IV seizure rate / mortality rate / Grade III seizure incubation period / Grade IV seizure incubation period / Cases of deaths / Cases of Grade IV: PTZ 65 mg/kg i.p.; for Grade IV seizure rate / mortality rate: 10 mice; for Grade III seizure incubation period / Grade IV seizure incubation period: mean ± SEM; for Grade IV seizure incubation period: mice not reaching Grade IV recorded as maximum 900 seconds; for Cases of deaths / Cases of Grade IV: of 10 mice; for Cases of Grade IV: 15 minutes observation
Description: Medicines: Pentylenetetrazol (PTZ), Retigabine, Protein BD-10.
Experiment grouping: • Model group; • Retigabine 60 mg/kg group; • Protein BD-10, 50 mg/kg group, 200 mg/kg group;
The drug was administered once in the afternoon the day before modeling, On the day of modeling, PTZ-65 mg/kg (modeling agent) was injected intraperitoneal 1 hour after the test drug was administered intragastrically, and the positive drug can be administered once half an hour before modeling. Continue to observe for 15 minutes after injection of PTZ.
Observation index: (1)Seizure situation: the time of seizures from Grade III to Grade VI; (2)Death situation
(§1) Seizure grade: Refer to Racine grading standard: Grade 0: No response; Grade I: manifested as twitching of facial muscles or the corners of the mouth; Grade II: can nod; Grade III: twitching of one limb; Grade IV: rigidity or body twitching; Grade V: generalized epilepsy (generalized tonic seizures).
Count the cases of seizures and deaths in each group of mice in the experiment; Grade III and IV incubation period. The incubation period of mice that have not attacked to Grade IV is recorded as the maximum of 900 seconds. Chi-square test was used for statistics of the number of cases. Calculate the mean and standard error of the incubation period. Use TTEST to compare the model group with other groups, and P<0.05 is considered as a significant difference.

[2] = test system: PLO-induced epilepsy in mice; assay: Pilocarpine (PLO) induced convulsive epilepsy in mice; design: mortality rate: unit not given here; conditions: for Grade IV seizure rate / mortality rate / Grade II seizure incubation period / Grade III seizure incubation period / Grade IV seizure incubation period / Cases of deaths / Cases of Grade IV: PLO 225 mg/kg i.p.; for Grade IV seizure rate / mortality rate: 10 mice; for Grade II seizure incubation period / Grade III seizure incubation period / Grade IV seizure incubation period: mean ± SEM; for Grade IV seizure incubation period: mice not reaching Grade IV recorded as maximum 1800 seconds; for Cases of deaths / Cases of Grade IV: of 10 mice; for Cases of Grade IV: 30 minutes observation
Description: Animals: male ICR mice; Drugs: Pilocarpine HCl (PLO, pilocarpine, pilocarpine hydrochloride), Diazepam (diazepam tablets), protein BD-10.
Experiment grouping: • Model group: • Diazepam 2 mg/kg group; • Protein BD-10, 50 mg/kg group, 200 mg/kg group.
The drug was administered once in the afternoon the day before modeling, PLO-225 mg/kg (modeling agent) was injected intraperitoneally 1 hour after the test drug was administered intragastrically on the day of modeling. And positive drug can be administered once 20 minutes before modeling. Observe for 30 minutes after PLO injection.
Observation indicators: (1)Seizure situation: the time of seizures from Grade II to Grade IV; (2)the time to death.
as §1
Count the number of Grade IV seizures and deaths in each group of mice in the experiment; Grade II, III and IV incubation period. […] Chi-square test was used for statistics of the number of cases. The mean value and standard error of the incubation period were calculated, and TTEST was used to compare the model group with other groups. P<0.05 was considered as a significant difference.

[3] = test system: phenol red excretion in mice; assay: Expectorant test, phenol red excretion method in mice; conditions: for Phenol red excretion: 2.5% phenol red i.p. one hour later, trachea after 30 minutes, X ± SEM
Description: Animals: male ICR mice; Drugs and reagents: Mucosolvan (ambroxol hydrochloride tablets), phenol red, sodium bicarbonate, protein BD-10; Instruments: centrifuge (Sigma-3K15 type), balance (XS105DU type), Microplate tester (BIO-TEK type). Experiment grouping: • Solvent control group; • Mucosolvan 30 mg/kg group; • Protein BD-10, 20 mg/kg group, 50 mg/kg group.
The animals were fasted and water was taken freely 16 hours before the experiment. Orally administered Mucosolvan and different doses of protein BD-10 (administration volume 10 ml/kg) in groups, and the solvent control group was given the same volume of distilled water. One hour later, 2.5% phenol red solution was injected intraperitoneally. Mice were sacrificed by neck dislocation after 30 minutes. Take a trachea from below the thyroid cartilage to the branch of the trachea, and put the trachea into 3 ml 5% NaHCO3 solution and let it stand for 3 hours. Take 1 ml of the supernatant and centrifuge at 3000 rpm for 5 minutes. Measure and record the absorbance at 546 nm. According to the standard curve of phenol red, the excretion of phenol red was calculated.
Record the time point of oral administration, the time point of intraperitoneal injection of 2.5% phenol red solution, and the time point of taking the trachea respectively; The absorbance of each group of samples was measured by the microplate reader at 546 nm, Calculate the excretion of phenol red according to the standard curve of phenol red. Calculate the mean and standard error of the data in each group, and use TTEST to compare the solvent control group with other groups, and P<0.05 is considered as a significant difference.

B1: BD-10: recombinant keratin with amino acid sequence SEQ ID NO:1, expressed in E. coli inclusion bodies, band around 55 kD (protein, listed as Bos taurus)
chain: MSCRSYRISPGYSVTRTFSSCSAVAPKTGSRCCITAAPYRGVSCYRGLTGFGSRSVSALGSCGPRIAVGGFRAGSCNRSFGYRSGGVGGLSPPCITTVSVNESLLTPLNLEIDPNAQCVKHEEKEQIKNLNSRFAAFIDKVRFLEQQNKLLETKWQFYQNQRCCESNLEPLFNGYIETLRREAEHVEADGGRLASELNHVQEVLEGYKKKYEEEVALRATAENEFVVLKKDVDCAYLRKSDLEANVEALVEESNFLKRLYDEEIQILNAHISDTSVIVKMDNSRDLNMDCVVAEIKAQYDDIASRSRAEAESWYRNKCEEMKATVIRHGETLRRTKEEINELNRIIQRLTAEIENAKCQRTKLEAAVAEAEQQGEAALNDARCKLAGLEEALQKAKQDMACLLKEYQEVMNSKLGLDIEIATYRRLLEGEEQRLCEGVGSVNVCVSSSRGGVTCGGLTYSTTAGRQIASGPVATGGSITVLAPDSCVPCQPRASSFSCGSSRSVRFA
[1]; BD-10 50 mg/kg intragastric
  Grade IV seizure rate: 80%
  mortality rate: 0%
  Grade III seizure incubation period: 63 ± 2 s
  Grade IV seizure incubation period: 296 ± 106 s
  Cases of deaths: 0
  Cases of Grade IV: 8
[1]; BD-10 200 mg/kg intragastric
  Grade IV seizure rate: 70%
  mortality rate: 0%
  Grade III seizure incubation period: 81 ± 9 s
  Grade IV seizure incubation period: 359 ± 120 s
  Cases of deaths: 0
  Cases of Grade IV: 7
[1]; BD-10, PTZ model, no statistical difference compared with the model group
  Effect on incubation period of Grade IV epilepsy (in words): has a tendency to extend the incubation period
[2]; BD-10 50 mg/kg dose group, PLO model
  Incubation period of epilepsy Grade III, comparison with model group (in words): statistically different from the model group
[2]; BD-10 50 mg/kg intragastric
  Grade IV seizure rate: 90%
  mortality rate: 0
  Grade II seizure incubation period: 93 ± 4 s
  Grade III seizure incubation period: 166 ± 8 s
  Grade IV seizure incubation period: 871 ± 144 s
  Cases of deaths: 0
  Cases of Grade IV: 9
[2]; BD-10 200 mg/kg intragastric
  Grade IV seizure rate: 70%
  mortality rate: 0
  Grade II seizure incubation period: 90 ± 6 s
  Grade III seizure incubation period: 151 ± 7 s
  Grade IV seizure incubation period: 918 ± 198 s
  Cases of deaths: 0
  Cases of Grade IV: 7
[2]; BD-10, dose not stated, PLO model
  Effect on incubation period of Grade III epilepsy (in words, summary): can significantly prolong the incubation period of Grade III epilepsy
[3]; BD-10 20 mg/kg and 50 mg/kg dose groups, vs solvent control group P<0.05
  Effect on excretion of phenol red (in words): significantly increased the excretion of phenol red
[3]; BD-10 20 mg/kg oral
  Phenol red excretion: 0.746 ± 0.035 µg/mL
[3]; BD-10 50 mg/kg oral
  Phenol red excretion: 0.668 ± 0.063 µg/mL
[3]; BD-10, dose not stated
  Expectorant effect (in words, summary): has obvious expectorant effect
